{"source": "patent US20120003245A1", "about": "(UNIVERSITY OF GUELPH, published 2012)", "binders": {"B1": {"name": "anti-α-cobratoxin VHH C19 (VHH)", "VHH": "QVKLEESGGGLAQAGGSLRLSCIGSGDISSFNAMGWYRQVPGKQRELVAFISSGGRSKYTDSVKGRFTISGDNAKNTVYLQMIDLKPEDTAVYYCNAGSVVSYETGNYYEPSNYWGQGTQVTVSS"}, "B2": {"name": "anti-α-cobratoxin VHH C2 (VHH)", "VHH": "QVKLEESGGGLVLPGGSLRLSCAASGSISSIYAMGWYRQAPGKQREVVAVITNGNSPNYADSVKGRFTISRDNAKNTVYLQMNSLKPEDTAVYYCNVEGVRYGDSWYDGDYWGQGTQVTVSS"}, "B3": {"name": "anti-α-cobratoxin VHH C43 (VHH)", "VHH": "B2 VHH with Q1R, L13Q, P14A, A24V, I28T, S29F, S30D, I31D, M34I"}, "B4": {"name": "anti-α-cobratoxin VHH C20 (VHH)", "VHH": "QVKLEESGGGLVQPGGSLRLSCVGSGSISSFNGMGWYRQVPGKQRELVAFISSGGRSKYTDSVKGRFTISGDNAKSTVYLQMINLKPEDTAVYYCNVGSVLSYVTGNYYEPSDYWGQGTQVTVSS"}}, "note": "Changes are numbered by the printed parent chain.", "data": [{"biological_target": "α-cobratoxin (Naja kaouthia, UniProt P01391)", "sequence (P01391 whole entry)": "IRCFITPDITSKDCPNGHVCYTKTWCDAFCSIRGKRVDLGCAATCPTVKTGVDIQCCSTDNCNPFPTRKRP", "units": {"Kd": "nM", "koff": "s⁻¹", "kon": "M⁻¹ s⁻¹"}, "values": [{"binder": "B1", "Kd": 25, "koff": 0.01, "kon": 580000}, {"binder": "B2", "Kd": 0.4, "koff": 0.00019, "kon": 520000}, {"binder": "B3", "Kd": 24, "koff": 0.0068, "kon": 290000}, {"binder": "B4", "Kd": 1, "koff": 0.0017, "kon": "1.8e+06"}]}]}
